Results as given in PMC5886171.

Assays:
[1] = molecular target: Full-length plasma gelsolin Gly167Arg (human) (UniProt P06396); experiment: SEC-MALS; 200 µl of 4 mg/ml Gly167Arg GSN separated by gel filtration without calcium, on-line MALS, dn/dc 0.185
[2] = molecular target: Gelsolin G2 domain (amino acids 151–266) carrying the Gly167Arg mutation (human) (UniProt P06396); experiment: dynamic light scattering; 1 mg/ml monomer in 20 mM HEPES pH 7.4, 0.3 M NaCl, 1 mM EDTA, incubated at 4 °C; hydrodynamic radius against time, measured at 4 °C; monomer to dimer, pseudo-first-order fit
[3] = molecular target: Gelsolin G2 domain (amino acids 151–266) carrying the Gly167Arg mutation (human) (UniProt P06396); experiment: dynamic light scattering; 1 mg/ml monomer in 20 mM HEPES pH 7.4, 0.3 M NaCl, 1 mM CaCl2, incubated at 25 °C; hydrodynamic radius against time, measured at 4 °C; monomer to dimer, pseudo-first-order fit
[4] = molecular target: Gelsolin G2 domain (amino acids 151–266) carrying the Gly167Arg mutation (human) (UniProt P06396); experiment: SEC; analytical gel filtration, Superdex 75 Increase 10/300 GL; 0.5 mg/ml isolated dimer or monomer incubated in 20 mM HEPES pH 7.4, 0.3 M NaCl with 1 mM CaCl2 at 4 °C, 1 mM CaCl2 at 25 °C or 1 mM EDTA at 4 °C; time course

Full-length plasma gelsolin Gly167Arg (from UniProt P06396 26-782) (natural protein)
stoichiometry N [1]: 2

Gelsolin G2 domain (amino acids 151–266) carrying the Gly167Arg mutation (from UniProt P06396 178-293) (domain or fragment)
pseudo-first-order rate constant k of the conversion of monomers to dimers [2]: 2.1 h⁻¹ | pseudo-first-order rate constant k of the conversion of monomers to dimers [3]: 0.6 h⁻¹ | fraction of dimers at equilibrium [4]: 50%
